In paper PMC11199644, “Structural and mechanistic insights into a lysosomal membrane enzyme HGSNAT involved in Sanfilippo syndrome” (Nature Communications, 2024):

Target: the molecule itself
Assay: cryo-EM structure; purified HGSNAT in 20 mM HEPES pH 7.4, 150 mM NaCl, 0.01% GDN; apo (two conformations) or with acetyl-CoA, CoA, acetyl-CoA + MU-βGlcN, CoA + MUF-NAG; six structures, all dimers

B1: heparan sulfate acetyl-CoA:α-glucosaminide N-acetyltransferase (HGSNAT) (enzyme, human, UniProt Q68CP4-2 1-635, looked up)
chain: MSGAGRALAALLLAASVLSAALLAPGGSSGRDAQAAPPRDLDKKRHAELKMDQALLLIHNELLWTNLTVYWKSECCYHCLFQVLVNVPQSPKAGKPSAAAASVSTQHGSILQLNDTLEEKEVCRLEYRFGEFGNYSLLVKNIHNGVSEIACDLAVNEDPVDSNLPVSIAFLIGLAVIIVISFLRLLLSLDDFNNWISKAISSRETDRLINSELGSPSRTDPLDGDVQPATWRLSALPPRLRSVDTFRGIALILMVFVNYGGGKYWYFKHASWNGLTVADLVFPWFVFIMGSSIFLSMTSILQRGCSKFRLLGKIAWRSFLLICIGIIIVNPNYCLGPLSWDKVRIPGVLQRLGVTYFVVAVLELLFAKPVPEHCASERSCLSLRDITSSWPQWLLILVLEGLWLGLTFLLPVPGCPTGYLGPGGIGDFGKYPNCTGGAAGYIDRLLLGDDHLYQHPSSAVLYHTEVAYDPEGILGTINSIVMAFLGVQAGKILLYYKARTKDILIRFTAWCCILGLISVALTKVSENEGFIPVNKNLWSLSYVTTLSSFAFFILLVLYPVVDVKGLWTGTPFFYPGMNSILVYVGHEVFENYFPFQWKLKDNQSHKEHLTQNIVATALWVLIAYILYRKKIFWKI
notes: human HGSNAT, open reading frame of UniProt Q68CP4-2 (short isoform 2, 28 residues from the N-terminal missing); The purified sample held two species, the full-length protein and the auto-cleaved form (alpha and beta chains still together); A thrombin site lies between HGSNAT and the tags, so some residues of it may be left after cleavage; also called TMEM76; heparan-α-glucosaminide …
stoichiometry N: 2
